Test results reported in US11155602B2, “Polypeptides targeting HIV fusion” (priority 2015, dated 2021).

B1: 424 (protein)
chain: MGHHHHHHGGSVSDVPRDLEVVAATPTSLLISWEYKVNAYRYYRITYGETGGNSPVQEFTVPSVLSTATISGLKPGVDYTITVYAVTYGVDSDPISINYRTEIDGGGGSGGGGSGGGGSGGGGARIEEYAARIEALIRAAQEQQEKNEAALRELYKWAS
modifications: Anti-N17 Adnectin - HIV fusion peptide inhibitor Combinectin
B2: 419 (protein)
chain: MGHHHHHHGVSDVPRDLEVVAATPTSLLISWDAPAVTVRYYRITYGETGGNSPVQEFTVPGSKSTATISGLKPGVDYTITVYAVTGRGESPASSKPISINYRTEIDGGGGSGGGGSGGGGSGGGGSRIEALIRAAQEQQEKNEAALRELQKWAS
modifications: Anti-N17 Adnectin - HIV fusion peptide inhibitor Combinectin
B3: 423 (protein)
chain: MGHHHHHHGVSDVPRDLEVVAATPTSLLISWDAPAVTVRYYRITYGETGGNSPVQEFTVPGSKSTATISGLKPGVDYTITVYAVTGRGESPASSKPISINYRTEIDGGGGSGGGGSGGGGSGGGGSRIEALIRAAQEQQEKNEAALRELYKWTS
modifications: Anti-N17 Adnectin - HIV fusion peptide inhibitor Combinectin
B4: 422 (protein)
chain: MGHHHHHHGVSDVPRDLEVVAATPTSLLISWKYKVHPYRYYRITYGETGGNSPVQEFTVPSVLSTATISGLKPGVDYTITVYAVTYGVNSLPISINYRTEIDGGGGSGGGGSGGGGSGGGGTEYEARIEALIRAAQEQQEKNEAALRELDK
modifications: Anti-N17 Adnectin - HIV fusion peptide inhibitor Combinectin
B5: 427 (protein)
chain: MGHHHHHHGVSDVPRDLEVVAATPTSLLISWKYKVHPYRYYRITYGETGGNSPVQEFTVPSVLSTATISGLKPGVDYTITVYAVTYGVNSLPISINYRTEIDGGGGSGGGGSGGGGSGGGGTEYEARIEALIRAAQEQQEKNEAALRELKEWASIWN
modifications: Anti-N17 Adnectin - HIV fusion peptide inhibitor Combinectin
B6: 420 (protein)
chain: MGHHHHHHGGSVSDVPRDLEVVAATPTSLLISWEYKVHPYRYYRITYGETGGNSPVQEFTVPSVLSTATISGLKPGVDYTITVYAVTYGDDSAPISINYRTEIDGGGGSGGGGSGGGGSGGGGSRIEALIRAAQEQQEKNEAALRELDKWAS
modifications: Anti-N17 Adnectin - HIV fusion peptide inhibitor Combinectin
B7: 421 (protein)
chain: MGHHHHHHGVSDVPRDLEVVAATPTSLLISWVAGAEDYQYYRITYGETGGNSPVQEFTVPHDLVTATISGLKPGVDYTITVYAVTDMMHVEYTEHPISINYRTEIDGGGGSGGGGSGGGGSGGAIAEYAARIEALIRAAQEQQEKNEAALRELDKWAS
modifications: Anti-N17 Adnectin - HIV fusion peptide inhibitor Combinectin
B8: 426 (protein)
chain: MGHHHHHHGGSVSDVPRDLEVVAATPTSLLISWEYKVNAYRYYRITYGETGGNSPVQEFTVPSVLSTATISGLKPGVDYTITVYAVTYGVDSDPISINYRTEIDGGGGSGGGGSGGGGSGGGGSEYEARIEALIRAAQEQQEKNEAALRELYKWAS
modifications: Anti-N17 Adnectin - HIV fusion peptide inhibitor Combinectin
B9: 425 (protein)
chain: MGHHHHHHGGSVSDVPRDLEVVAATPTSLLISWEYKVNAYRYYRITYGETGGNSPVQEFTVPSVLSTATISGLKPGVDYTITVYAVTYGVDSDPISINYRTEIDGGGGSGGGGSGGGGSGGGGTIAEYAARIEALIRAAQEQQEKNEAALRELYKWAS
modifications: Anti-N17 Adnectin - HIV fusion peptide inhibitor Combinectin

These molecules were tested on NL-Rluc virus (assay: Combinectin potency assay: antiviral EC50, NL-Rluc virus in MT-2 cells, luciferase readout). Conditions: Anti-N17 Adnectin - HIV fusion peptide inhibitor Combinectin, Table 4.
Format: cell-based, HIV-1
Method in brief: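 Peptides, serially diluted threefold over 11 points in triplicate, were exposed for 4–5 days to MT-2 cells preinfected 1 h with NL-Rluc virus (MOI 0.01). Replication read out as Renilla luciferase signal, with EC50 derived against untreated infected controls.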

**Q.** How did the EC50 turn out when B1 was run?
**A.** 39 nM

**Q.** How did the EC50 turn out when B2 was run?
**A.** > 1000 nM

**Q.** Which EC50 does the source give for B3 here?
**A.** 122 nM

**Q.** With B4 as the molecule, how does the EC50 read?
**A.** 3 nM

**Q.** With B5 as the molecule, how does the EC50 read?
**A.** 143 nM

**Q.** Which EC50 does the source give for B6 here?
**A.** 8 nM

**Q.** B7 was tested. Which EC50 did it give?
**A.** 50 nM

**Q.** How did the EC50 turn out when B8 was run?
**A.** 139 nM

**Q.** B9 was tested. Which EC50 did it give?
**A.** 523 nM
